This note sets out measurements from US20190071668, “COMPOSITIONS AND METHODS FOR IDENTIFICATION, ASSESSMENT, PREVENTION, AND TREATMENT OF CANCER USING SLNCR ISOFORMS” (Dana-Farber Cancer Institute, Inc., published 2019).

This series has as its target Androgen receptor (AR) (UniProt P10275 P10275:1-920). Nature of the series: EMSA. A general note: In EMSA bound probe runs differently from free probe, usually more slowly.

Chain of Androgen receptor (AR) (P10275 whole entry, one chain of several): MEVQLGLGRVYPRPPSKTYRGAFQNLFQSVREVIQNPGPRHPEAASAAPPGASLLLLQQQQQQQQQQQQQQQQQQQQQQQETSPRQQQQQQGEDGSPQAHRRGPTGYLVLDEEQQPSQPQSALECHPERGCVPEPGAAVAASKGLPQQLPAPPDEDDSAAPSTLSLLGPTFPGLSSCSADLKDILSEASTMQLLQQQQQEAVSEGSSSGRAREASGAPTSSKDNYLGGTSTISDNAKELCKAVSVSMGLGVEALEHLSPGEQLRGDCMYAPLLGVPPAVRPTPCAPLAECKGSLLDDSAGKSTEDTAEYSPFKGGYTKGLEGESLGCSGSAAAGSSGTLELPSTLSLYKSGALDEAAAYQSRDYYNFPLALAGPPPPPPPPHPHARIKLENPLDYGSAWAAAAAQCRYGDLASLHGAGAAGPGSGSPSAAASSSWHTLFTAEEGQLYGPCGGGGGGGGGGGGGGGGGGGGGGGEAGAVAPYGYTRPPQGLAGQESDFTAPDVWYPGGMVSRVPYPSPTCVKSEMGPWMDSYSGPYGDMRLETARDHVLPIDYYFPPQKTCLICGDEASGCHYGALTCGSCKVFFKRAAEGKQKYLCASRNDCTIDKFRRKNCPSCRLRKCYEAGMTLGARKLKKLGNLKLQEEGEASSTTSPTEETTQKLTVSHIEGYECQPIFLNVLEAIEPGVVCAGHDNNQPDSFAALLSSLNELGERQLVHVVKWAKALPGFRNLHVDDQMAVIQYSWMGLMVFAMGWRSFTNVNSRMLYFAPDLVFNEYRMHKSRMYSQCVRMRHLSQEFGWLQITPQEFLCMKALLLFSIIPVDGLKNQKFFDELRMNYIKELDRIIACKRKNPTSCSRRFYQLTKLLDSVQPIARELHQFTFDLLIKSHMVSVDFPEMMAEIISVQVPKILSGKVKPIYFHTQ

Turning to CCCUCCCUCCCUCCCUCCCU (ssRNA) [(CCCU)5], the binding result is on record as “no binding”.
In the case of UCUCUCUCUCUCUCUCUCUC (ssRNA) [(UC)10] it was “no binding”; in that of UUCUUUCUUUCUUUCUUUCU (ssRNA) [(UUCU)5], “no binding”.
